Reference: patent US20160108110A1 (Novartis, published 2016)

T1: Human ANGPTL4(26-406)-FLAG-His6-Avi (human, UniProt Q9BY76 24-406, biotin on the C-terminal Avi tag in the biotinylated preparations (immobilised form in SET, ELISA and Octet))
T1 construct: also called full-length human ANGPTL4; hANGPTL4
T1 sequence: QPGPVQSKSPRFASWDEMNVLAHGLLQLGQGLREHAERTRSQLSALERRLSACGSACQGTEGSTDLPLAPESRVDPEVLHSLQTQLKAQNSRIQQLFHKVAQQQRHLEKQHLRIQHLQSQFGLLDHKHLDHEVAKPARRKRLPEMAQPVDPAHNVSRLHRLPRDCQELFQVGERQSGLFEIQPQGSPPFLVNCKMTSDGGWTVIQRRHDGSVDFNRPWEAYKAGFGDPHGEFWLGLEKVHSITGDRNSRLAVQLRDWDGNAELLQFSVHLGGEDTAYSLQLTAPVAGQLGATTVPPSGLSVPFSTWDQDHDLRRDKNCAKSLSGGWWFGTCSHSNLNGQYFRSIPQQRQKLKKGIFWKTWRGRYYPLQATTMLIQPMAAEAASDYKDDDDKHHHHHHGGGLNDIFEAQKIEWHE

B1: MOR023439 (antibody, human IgG1, kappa, V domains shown)
VH: EVQLLESGGGLVQPGGSLRLSCAASGFTFSSYYLHWVRQAPGKGLEWVSGISSGGSYINYADSVKGRFTISRDNSKNTLYLQMNSLRAEDTAVYYCARERSYAHDHWGQGTLVTVSS
VL: DIQMTQSPSSLSASVGDRVTITCRASQDIYIDLNWYQQKPGKAPKLLIYAASKLQSGVPSRFSGSGSGTDFTLTISSLQPEDFATYYCQQGYFLPQTFGQGTKVEIKR
notes: built on the parent antibody for IgG conversion MOR022768 with residues 48-66 of the heavy chain replaced; Parent Fab MOR021823
B2: MOR023400 (antibody, human IgG1, kappa, V domains shown)
VH: EVQLLESGGGLVQPGGSLRLSCAASGFTFSSYWMHWVRQAPGKGLEWVSGIPYQGPAINYADSVKGRFTISRDNSKNTLYLQMNSLRAEDTAVYYCARDSYIYDLHWGFDNWGQGTLVTVSS
VL: DIQMTQSPSSLSASVGDRVTITCRASQDISSYLNWYQQKPGKAPKLLIYAASRLQSGVPSRFSGSGSGTDFTLTISSLQPEDFATYYCQQSYTHPYTFGQGTKVEIKR
notes: built on the parent antibody for IgG conversion MOR022771 with residues 48-66 of the heavy chain replaced; Parent Fab MOR021830
B3: MOR023411 (antibody, human IgG1, kappa, V domains shown)
VH: EVQLLESGGGLVQPGGSLRLSCAASGFTFSSYWMHWVRQAPGKGLEWVSGISYSGSSTNYADSVKGRFTISRDNSKNTLYLQMNSLRAEDTAVYYCARDSYIYDLHWGFDNWGQGTLVTVSS
VL: DIQMTQSPSSLSASVGDRVTITCRASQDISSYLNWYQQKPGKAPKLLIYAASRLQSGVPSRFSGSGSGTDFTLTISSLQPEDFATYYCQQAYYHPYTFGQGTKVEIKR
notes: as MOR023407: built on MOR022771, limits derived
B4: MOR023410 (antibody, human IgG1, kappa, V domains shown)
VH: EVQLLESGGGLVQPGGSLRLSCAASGFTFSSYWMHWVRQAPGKGLEWVSGISYSGSSTNYADSVKGRFTISRDNSKNTLYLQMNSLRAEDTAVYYCARDSYIYDLHWGFDNWGQGTLVTVSS
VL: DIQMTQSPSSLSASVGDRVTITCRASQDISSYLNWYQQKPGKAPKLLIYAASRLQSGVPSRFSGSGSGTDFTLTISSLQPEDFATYYCQQAYFAPYTFGQGTKVEIKR
notes: as for B3
B5: MOR023402 (antibody, human IgG1, kappa, V domains shown)
VH: EVQLLESGGGLVQPGGSLRLSCAASGFTFSSYWMHWVRQAPGKGLEWVSVIGYSGTHTNYADSVKGRFTISRDNSKNTLYLQMNSLRAEDTAVYYCARDSYIYDLHWGFDNWGQGTLVTVSS
VL: DIQMTQSPSSLSASVGDRVTITCRASQDISSYLNWYQQKPGKAPKLLIYAASRLQSGVPSRFSGSGSGTDFTLTISSLQPEDFATYYCQQSYTHPYTFGQGTKVEIKR
notes: as MOR023400: built on MOR022771, limits derived
B6: MOR023412 (antibody, human IgG1, kappa, V domains shown)
VH: EVQLLESGGGLVQPGGSLRLSCAASGFTFSSYWMHWVRQAPGKGLEWVSGISYSGSSTNYADSVKGRFTISRDNSKNTLYLQMNSLRAEDTAVYYCARDSYIYDLHWGFDNWGQGTLVTVSS
VL: DIQMTQSPSSLSASVGDRVTITCRASQDISSYLNWYQQKPGKAPKLLIYAASRLQSGVPSRFSGSGSGTDFTLTISSLQPEDFATYYCQQAYYPPYTFGQGTKVEIKR
notes: as for B3
B7: MOR023441 (antibody, human IgG1, kappa, V domains shown)
VH: EVQLLESGGGLVQPGGSLRLSCAASGFTFSSYYLHWVRQAPGKGLEWVSSIAGMGNYIDYADSVKGRFTISRDNSKNTLYLQMNSLRAEDTAVYYCARERSYAHDHWGQGTLVTVSS
VL: DIQMTQSPSSLSASVGDRVTITCRASQDIYIDLNWYQQKPGKAPKLLIYAASKLQSGVPSRFSGSGSGTDFTLTISSLQPEDFATYYCQQGYFLPQTFGQGTKVEIKR
notes: as MOR023439: built on MOR022768, limits derived
B8: MOR023443 (antibody, human IgG1, kappa, V domains shown)
VH: EVQLLESGGGLVQPGGSLRLSCAASGFTFSSYYLHWVRQAPGKGLEWVSSIASSSPATHYADSVKGRFTISRDNSKNTLYLQMNSLRAEDTAVYYCARERSYAHDHWGQGTLVTVSS
VL: DIQMTQSPSSLSASVGDRVTITCRASQDIYIDLNWYQQKPGKAPKLLIYAASKLQSGVPSRFSGSGSGTDFTLTISSLQPEDFATYYCQQGYFLPQTFGQGTKVEIKR
notes: as for B7
B9: MOR023413 (antibody, human IgG1, kappa, V domains shown)
VH: EVQLLESGGGLVQPGGSLRLSCAASGFTFSSYWMHWVRQAPGKGLEWVSGISYSGSSTNYADSVKGRFTISRDNSKNTLYLQMNSLRAEDTAVYYCARDSYIYDLHWGFDNWGQGTLVTVSS
VL: DIQMTQSPSSLSASVGDRVTITCRASQDISSYLNWYQQKPGKAPKLLIYAASRLQSGVPSRFSGSGSGTDFTLTISSLQPEDFATYYCQQYYYPPYTFGQGTKVEIKR
notes: as for B3
B10: MOR023448 (antibody, human IgG1, kappa, V domains shown)
VH: EVQLLESGGGLVQPGGSLRLSCAASGFTFSSYYLHWVRQAPGKGLEWVSSISSISGFTEYADSVKGRFTISRDNSKNTLYLQMNSLRAEDTAVYYCARERSYAHDHWGQGTLVTVSS
VL: DIQMTQSPSSLSASVGDRVTITCRASQDIYIDLNWYQQKPGKAPKLLIYAASKLQSGVPSRFSGSGSGTDFTLTISSLQPEDFATYYCQQGYFLPQTFGQGTKVEIKR
notes: as for B7
B11: MOR023406 (antibody, human IgG1, kappa, V domains shown)
VH: EVQLLESGGGLVQPGGSLRLSCAASGFTFSSYWMHWVRQAPGKGLEWVSYIPYMGPGKFYADSVKGRFTISRDNSKNTLYLQMNSLRAEDTAVYYCARDSYIYDLHWGFDNWGQGTLVTVSS
VL: DIQMTQSPSSLSASVGDRVTITCRASQDISSYLNWYQQKPGKAPKLLIYAASRLQSGVPSRFSGSGSGTDFTLTISSLQPEDFATYYCQQSYTHPYTFGQGTKVEIKR
notes: as for B5
B12: MOR023446 (antibody, human IgG1, kappa, V domains shown)
VH: EVQLLESGGGLVQPGGSLRLSCAASGFTFSSYYLHWVRQAPGKGLEWVSSISSAGHYIDYADSVKGRFTISRDNSKNTLYLQMNSLRAEDTAVYYCARERSYAHDHWGQGTLVTVSS
VL: DIQMTQSPSSLSASVGDRVTITCRASQDIYIDLNWYQQKPGKAPKLLIYAASKLQSGVPSRFSGSGSGTDFTLTISSLQPEDFATYYCQQGYFLPQTFGQGTKVEIKR
notes: as for B7
B13: MOR023407 (antibody, human IgG1, kappa, V domains shown)
VH: EVQLLESGGGLVQPGGSLRLSCAASGFTFSSYWMHWVRQAPGKGLEWVSGISYSGSSTNYADSVKGRFTISRDNSKNTLYLQMNSLRAEDTAVYYCARDSYIYDLHWGFDNWGQGTLVTVSS
VL: DIQMTQSPSSLSASVGDRVTITCRASQDISSYLNWYQQKPGKAPKLLIYAASRLQSGVPSRFSGSGSGTDFTLTISSLQPEDFATYYCFQMYYHPYTFGQGTKVEIKR
notes: built on the parent antibody for IgG conversion MOR022771 with residues 89-96 of the light chain replaced; Parent Fab MOR021830 has another HCDR2 (D53) and Q1 in the VH
B14: MOR023447 (antibody, human IgG1, kappa, V domains shown)
VH: EVQLLESGGGLVQPGGSLRLSCAASGFTFSSYYLHWVRQAPGKGLEWVSSISSAGVYKDYADSVKGRFTISRDNSKNTLYLQMNSLRAEDTAVYYCARERSYAHDHWGQGTLVTVSS
VL: DIQMTQSPSSLSASVGDRVTITCRASQDIYIDLNWYQQKPGKAPKLLIYAASKLQSGVPSRFSGSGSGTDFTLTISSLQPEDFATYYCQQGYFLPQTFGQGTKVEIKR
notes: as for B7
B15: MOR023416 (antibody, V domains shown)
VH: QVQLLESGGGLVQPGGSLRLSCAASGFTFSDYALHWVRQAPGKGLEWVSRITYTGLYTYYADSVKGRFTISRDNSKNTLYLQMNSLRAEDTAVYYCAREHYYSSPMGGVAVDNWGQGTLVTVSS
VL: DIVLTQPPSVSGAPGQRVTISCSGSSSNIGYNTVSWYQQLPGTAPKLLIYSNNIRPSGVPDRFSGSKSGTSASLAITGLQAEDEADYYCSSWDFLIKSLVFGGGTKLTVL
notes: as MOR023415: built on parent Fab MOR021798, limits derived
B16: MOR023417 (antibody, V domains shown)
VH: QVQLLESGGGLVQPGGSLRLSCAASGFTFSDYALHWVRQAPGKGLEWVSRITYTGMWTEYADSVKGRFTISRDNSKNTLYLQMNSLRAEDTAVYYCAREHYYSSPMGGVAVDNWGQGTLVTVSS
VL: DIVLTQPPSVSGAPGQRVTISCSGSSSNIGYNTVSWYQQLPGTAPKLLIYSNNIRPSGVPDRFSGSKSGTSASLAITGLQAEDEADYYCSSWDFLIKSLVFGGGTKLTVL
notes: as for B15
B17: MOR023418 (antibody, V domains shown)
VH: QVQLLESGGGLVQPGGSLRLSCAASGFTFSDYALHWVRQAPGKGLEWVSRITYTGQYKYYADSVKGRFTISRDNSKNTLYLQMNSLRAEDTAVYYCAREHYYSSPMGGVAVDNWGQGTLVTVSS
VL: DIVLTQPPSVSGAPGQRVTISCSGSSSNIGYNTVSWYQQLPGTAPKLLIYSNNIRPSGVPDRFSGSKSGTSASLAITGLQAEDEADYYCSSWDFLIKSLVFGGGTKLTVL
notes: as for B15
B18: MOR023415 (antibody, V domains shown)
VH: QVQLLESGGGLVQPGGSLRLSCAASGFTFSDYALHWVRQAPGKGLEWVSRITYTGFYTFYADSVKGRFTISRDNSKNTLYLQMNSLRAEDTAVYYCAREHYYSSPMGGVAVDNWGQGTLVTVSS
VL: DIVLTQPPSVSGAPGQRVTISCSGSSSNIGYNTVSWYQQLPGTAPKLLIYSNNIRPSGVPDRFSGSKSGTSASLAITGLQAEDEADYYCSSWDFLIKSLVFGGGTKLTVL
notes: built on parent Fab MOR021798 with residues 48-66 of the VH replaced

Target: T1, Human ANGPTL4(26-406)-FLAG-His6-Avi
Experiment: SET assay
Procedure: SET assays were performed as follows. In a 96-well polypropylene plate, a constant concentration of ANGPTL4 antibody was mixed with different concentrations of non-biotinylated human, cyno, mouse, or rat full-length ANPGLT4 protein, or human ANGPTL4 N-terminal domain protein (5-fold serial dilution) and incubated at 22° C. for 14 hours with constant shaking (300 rpm). On a pre-blocked 384-well streptavidin-coated Meso Scale Discovery (MSD) plate biotinylated ANGPTL4 (full-length human, cyno, mouse, or rat ANGPTL4, or human ANGPTL4 N-terminal domain) protein (1 nM, 15 μL per well) was immobilized and washed thereafter.
The equilibrium binding reactions (15 μL per well) were applied to the MSD plate with immobilized ANGPTL4 and incubated for 20 min at 22° C. The unbound material was removed by washing the plate 3 times with wash buffer, and the captured antibody was detected by adding Sulfo-tagged goat anti-human IgG (Meso Scale Discovery). After washing MSD read buffer T was added and the plate was developed using a Sector Imager 6000 (Meso Scale Discovery). The data were transferred to Microsoft Excel for analysis and plotted using GraphPad Prism v6. The KD values were determined by fitting the data to the following equation: […]
where Bₘₐₓ is the signal when no ANGPTL4 protein is present in solution, CAb is the constant concentration of ANGPTL4 antibody in solution, CAg is the concentration of ANGPTL4 in solution, and KD is the equilibrium dissociation constant.

Row | Binder | Kd
1 | B1 | < 1 pM
2 | B2 | 1 pM
3 | B3 | 2 pM
4 | B4 | < 1 pM
5 | B5 | 1 pM
6 | B6 | 1 pM
7 | B7 | < 1 pM
8 | B8 | < 1 pM
9 | B9 | < 1 pM
10 | B10 | < 1 pM
11 | B11 | 3 pM
12 | B12 | < 1 pM
13 | B13 | 1 pM
14 | B14 | < 1 pM
15 | B15 | 1 pM
16 | B16 | 6 pM
17 | B17 | 19 pM
18 | B18 | 1 pM
